# Results published in US7572895B2, “Transferrin receptor antibodies” (Raven Biotechnologies, Inc., priority 2004, dated 2009).
# Experiments:
# HCT15 tumor xenograft = assay: Established HCT15 tumor xenograft model; type: in vivo, mice; conditions: antibody 500 ug twice weekly for four weeks; gemcitabine 120 mg/kg q3d ×2
# Experimental: For each experimental group, data is plotted until the first animal presents with a tumor greater than 1000 mm^3.
# LUCA31 was particularly active in blocking the proliferation of the colon carcinoma cell line HCT15. […] In this study, groups of 15 mice were treated twice weekly with 500 ug of antibody for four weeks. Gemcitabine was dosed on a q3d ×2 schedule at 120 mg/kg, which is near the MTD. Treatment was initiated when tumor volumes averaged 70 mm^3. In FIG. 16A, the median tumor volumes are shown and in FIG. 16B, the mean tumor volumes with error bars are presented. In this experiment, the LUCA31 antibody produced a tumor growth delay of greater than 14 days, relative to the saline control. Gemcitabine produced a 20-day tumor growth delay and the combination of LUCA31 and gemcitabine produced a tumor growth delay of 18 days relative to gemcitabine alone.
# [1] = target: human transferrin receptor, full length, on cells (human) (UniProt P02786); assay: cell-based or functional assay
# Chain of UniProt P02786 (P02786 whole entry): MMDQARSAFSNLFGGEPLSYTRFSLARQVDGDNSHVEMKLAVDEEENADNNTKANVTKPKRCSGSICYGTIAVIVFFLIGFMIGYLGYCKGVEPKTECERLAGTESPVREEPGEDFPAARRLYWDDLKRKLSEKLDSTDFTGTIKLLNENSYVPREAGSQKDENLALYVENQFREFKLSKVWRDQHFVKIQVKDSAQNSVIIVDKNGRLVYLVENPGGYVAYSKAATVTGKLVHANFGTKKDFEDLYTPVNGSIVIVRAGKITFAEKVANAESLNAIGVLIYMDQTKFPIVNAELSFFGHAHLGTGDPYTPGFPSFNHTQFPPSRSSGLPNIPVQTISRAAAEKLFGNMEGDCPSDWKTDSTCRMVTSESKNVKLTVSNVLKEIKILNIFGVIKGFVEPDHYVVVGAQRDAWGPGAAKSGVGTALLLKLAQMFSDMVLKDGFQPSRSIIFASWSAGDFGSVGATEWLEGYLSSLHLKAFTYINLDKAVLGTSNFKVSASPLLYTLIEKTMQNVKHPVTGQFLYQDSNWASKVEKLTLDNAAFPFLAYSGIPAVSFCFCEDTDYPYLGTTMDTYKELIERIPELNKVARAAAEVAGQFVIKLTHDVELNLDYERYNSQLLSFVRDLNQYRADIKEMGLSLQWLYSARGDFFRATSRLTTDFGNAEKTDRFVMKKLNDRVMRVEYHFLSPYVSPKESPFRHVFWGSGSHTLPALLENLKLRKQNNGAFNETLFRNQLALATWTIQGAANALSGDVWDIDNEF
"Maximum inhibition (% inhibition) of cell proliferation, Calu6 cells [1] [%]","Maximum inhibition (% inhibition) of cell proliferation, Colo205 cells [1] [%]","Maximum inhibition (% inhibition) of cell proliferation, SW48 cells [1] [%]","Maximum inhibition (% inhibition) of cell proliferation, LS174T cells [1] [%]","growth inhibition (MTT), 786-O cells, LUCA31 at 20 ug/ml [1] [%]","growth inhibition (MTT), Colo205 cells, LUCA31 at 20 ug/ml [1] [%]","growth inhibition (MTT), MDA-MB-175VII cells, LUCA31 at 20 ug/ml [1] [%]","growth inhibition (MTT), SKMES-1 cells, LUCA31 at 20 ug/ml [1] [%]","maximum inhibition of cell proliferation (tritiated thymidine incorporation), Calu-6 cells [1] [%]",Molecule,tumor growth delay relative to the saline control (HCT15 tumor xenograft) [days]
,,,,,,,,,"Nc1ccn([C@@H]2O[C@H](CO)[C@@H](O)C2(F)F)c(=O)n1 [Gemcitabine, gemcitabine]",20
0,25,0,,,,,,,transferrin receptor antibody 42/6,
25,25,35,35,54,37,35,45,45,"LUCA31 monoclonal antibody (mouse anti-human transferrin receptor antibody produced by hybridoma CA130.3.13C9.1A7, ATCC PTA-6055)",
